Measured values published in patent US20060189528A1 (EVOGENIX, published 2006).
Where a chain is given by its changes, count along the chain named. In names and notes the source's numbering stands.

Tests used:
RANKL [1] = biological target: T1, RANKL (human, UniProt O14788 140-317, limits assumed); test: ELISA on coated RANKL, Fc-linked dimers; EC50 ratio to OPG(22-194).Fc wt; increase in binding (lower EC50)
T1 construct: also called Rank ligand
T1 sequence (looked up): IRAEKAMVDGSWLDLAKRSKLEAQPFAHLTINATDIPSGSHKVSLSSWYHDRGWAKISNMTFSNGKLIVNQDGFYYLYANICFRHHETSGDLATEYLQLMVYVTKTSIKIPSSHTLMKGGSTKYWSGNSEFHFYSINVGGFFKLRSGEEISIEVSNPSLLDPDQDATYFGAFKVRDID
Procedure: (§1) Purified mammalian-expressed OVP proteins are tested for binding to RANKL and TRAIL by ELISA. Wells are coated with RANKL at 5 μg/mL or TRAIL at 10 μg/mL in PBS O/N at 4° C., rinsed with PBS, blocked with 0.5% casein in PBS at room temp for 2 h, then rinsed again with PBS. Concentrations of OVPs to be tested are normalised to around 10 nM and then 50 μL applied to the antigen-coated wells in serial doubling dilutions over 6-7 wells for 1 h. […] All washes in between binding incubations are 3 times in PBS/0.05% Tween, then 3 times with PBS. Detection of bound OVPs is achieved with incubation of 50 μL anti-FLAG at […] for 20 min then 50 μL goat anti-mouse-peroxidase conjugate (BioRad) at 1:1500 for 20 min. TMB is used as enzyme substrate and then binding signal is measured at A_{450 nm}.

TRAIL [2] = biological target: T2, TRAIL (human, UniProt P50591 114-281); test: ELISA on coated TRAIL, Fc-linked dimers; EC50 ratio to OPG(22-194).Fc wt; reduction in binding (higher EC50)
T2 construct: also called TNF-related apoptosis inducing ligand; recombinant human TRAIL (R&D Systems)
T2 sequence (P50591 114-281 limits assumed): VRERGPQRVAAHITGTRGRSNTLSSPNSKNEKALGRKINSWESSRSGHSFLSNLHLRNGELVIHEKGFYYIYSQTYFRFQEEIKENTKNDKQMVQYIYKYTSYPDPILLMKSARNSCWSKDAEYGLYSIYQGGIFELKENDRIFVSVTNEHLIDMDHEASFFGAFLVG
Procedure: as §1

RANKL [3] = biological target: T1, RANKL; test: ELISA on coated RANKL, Fc-linked dimers; EC50 ratio to OPG(22-194).Fc wt; reduction in binding (higher EC50)
Procedure: as §1

TRAIL [4] = biological target: T2, TRAIL; test: ELISA on coated TRAIL, Fc-linked dimers; EC50 ratio to OPG(22-194).Fc wt; printed in parentheses (reduction in binding, higher EC50)
Procedure: as §1

TRAIL [5] = biological target: T2, TRAIL; test: ELISA on coated TRAIL, Fc-linked dimers; EC50 ratio to OPG(22-194).Fc wt; reduction in binding (higher EC50); # by extrapolation
Procedure: as §1

RANKL [6] = biological target: T1, RANKL; test: ELISA on coated RANKL, Fc-linked dimers; EC50 ratio to OPG(22-194).Fc wt; printed without parentheses
Procedure: as §1

TRAIL [7] = biological target: T2, TRAIL; test: ELISA on coated TRAIL, Fc-linked dimer
Procedure: as §1

B1: OVP I115A (Fc fusion)
chain: ETFPPKYLHYDEETSHQLLCDKCPPGTYLKQHCTAKWKTVCAPCPDHYYTDSWHTSDECLYCSPVCKELQYVKQECNRTHNRVCECKEGRYLEAEFCLKHRSCPPGFGVVQAGTPERNTVCKRCPDGFFSNETSSKAPCRKHTNCSVFGLLLTQKGNATHDNICSGNSESTQK
notes: Tested as C-terminal Fc-linked dimer with FLAG tag, from HEK 293 EBNA cells; signal peptide 1-21 processed; not shown: human Fc domain of vector pAPEX-3.Fc; C-terminal FLAG tag
RANKL fold change cf wt (RANKL [1]): 2.25 fold | TRAIL fold change cf wt (TRAIL [2]): 2.5 fold

B2: OVP I115W (Fc fusion)
chain: B1 chain with A94W
notes: as for B1
TRAIL fold change cf wt (TRAIL [2]): 5 fold | RANKL fold change cf wt (RANKL [3]): 1.4 fold

B3: OVP I115M (Fc fusion)
chain: B1 chain with A94M
notes: Ribosome display selected; tested as C-terminal Fc-linked dimer with FLAG tag, from HEK 293 EBNA cells; signal peptide 1-21 processed; also called 1R17; not shown: human Fc domain of vector pAPEX-3.Fc; C-terminal FLAG tag
RANKL fold change cf wt (RANKL [1]): 1.2 fold | TRAIL fold change cf wt (TRAIL [2]): 25 fold

B4: OVP N102D (Fc fusion)
chain: B1 chain with N81D, A94I
notes: as for B1
RANKL fold change cf wt (RANKL [1]): 1.1 fold | TRAIL fold change cf wt (TRAIL [4]): 1 fold

B5: OVP I115M, R122D (Fc fusion)
chain: B1 chain with A94M, R101D
notes: Tested as C-terminal Fc-linked dimer with FLAG tag, from HEK 293 EBNA cells; signal peptide 1-21 processed; also called I115M plus: R122D; not shown: human Fc domain of vector pAPEX-3.Fc; C-terminal FLAG tag
TRAIL fold change cf wt (TRAIL [2]): 23 fold | RANKL fold change cf wt (RANKL [3]): 6 fold

B6: OVP I115G (Fc fusion)
chain: B1 chain with A94G
notes: as for B1
RANKL fold change cf wt (RANKL [1]): 2.1 fold | TRAIL fold change cf wt (TRAIL [5]): > 125 fold

B7: OVP I115M, R122S (Fc fusion)
chain: B1 chain with A94M, R101S
notes: Tested as C-terminal Fc-linked dimer with FLAG tag, from HEK 293 EBNA cells; signal peptide 1-21 processed; also called I115M plus: R122S; not shown: human Fc domain of vector pAPEX-3.Fc; C-terminal FLAG tag
RANKL fold change cf wt (RANKL [1]): 1.5 fold | TRAIL fold change cf wt (TRAIL [2]): 3.5 fold

B8: OVP I115M, R122G (Fc fusion)
chain: B1 chain with A94M, R101G
notes: Tested as C-terminal Fc-linked dimer with FLAG tag, from HEK 293 EBNA cells; signal peptide 1-21 processed; also called I115M plus: R122G; not shown: human Fc domain of vector pAPEX-3.Fc; C-terminal FLAG tag
RANKL fold change cf wt (RANKL [6]): 1 fold | TRAIL fold change cf wt (TRAIL [2]): 12.5 fold

B9: OVP I115M, F128I (Fc fusion)
chain: B1 chain with A94M, F107I
notes: Tested as C-terminal Fc-linked dimer with FLAG tag, from HEK 293 EBNA cells; signal peptide 1-21 processed; also called I115M plus: F128I; not shown: human Fc domain of vector pAPEX-3.Fc; C-terminal FLAG tag
TRAIL fold change cf wt (TRAIL [5]): 250 fold | RANKL fold change cf wt (RANKL [3]): 2.1 fold

B10: OVP I115T, K51R, R111H (Fc fusion)
chain: B1 chain with K30R, R90H, A94T
notes: as for B1
RANKL fold change cf wt (RANKL [1]): 1.5 fold | TRAIL fold change cf wt (TRAIL [2]): 7.5 fold

B11: OVP I115M, F128S (Fc fusion)
chain: B1 chain with A94M, F107S
notes: Tested as C-terminal Fc-linked dimer with FLAG tag, from HEK 293 EBNA cells; signal peptide 1-21 processed; also called I115M plus: F128S; not shown: human Fc domain of vector pAPEX-3.Fc; C-terminal FLAG tag
RANKL fold change cf wt (RANKL [6]): 1 fold | TRAIL fold change cf wt (TRAIL [2]): 50 fold

B12: OVP I115M, N139D (Fc fusion)
chain: B1 chain with A94M, N118D
notes: as for B1
TRAIL fold change cf wt (TRAIL [2]): 60 fold | RANKL fold change cf wt (RANKL [3]): 1.75 fold

B13: OVP I115M, F128L (Fc fusion)
chain: B1 chain with A94M, F107L
notes: Tested as C-terminal Fc-linked dimer with FLAG tag, from HEK 293 EBNA cells; signal peptide 1-21 processed; also called I115M plus: F128L; not shown: human Fc domain of vector pAPEX-3.Fc; C-terminal FLAG tag
RANKL fold change cf wt (RANKL [1]): 1.2 fold | TRAIL fold change cf wt (TRAIL [5]): 250 fold

B14: OVP I115M, F128T (Fc fusion)
chain: B1 chain with A94M, F107T
notes: Tested as C-terminal Fc-linked dimer with FLAG tag, from HEK 293 EBNA cells; signal peptide 1-21 processed; also called I115M plus: F128T; not shown: human Fc domain of vector pAPEX-3.Fc; C-terminal FLAG tag
TRAIL fold change cf wt (TRAIL [2]): 7 fold | RANKL fold change cf wt (RANKL [3]): 3.3 fold

B15: OVP I115M, R122E (Fc fusion)
chain: B1 chain with A94M, R101E
notes: Tested as C-terminal Fc-linked dimer with FLAG tag, from HEK 293 EBNA cells; signal peptide 1-21 processed; also called I115M plus: R122E; not shown: human Fc domain of vector pAPEX-3.Fc; C-terminal FLAG tag
TRAIL fold change cf wt (TRAIL [2]): > 250 fold | RANKL fold change cf wt (RANKL [3]): 1.2 fold

B16: OVP I115K (Fc fusion)
chain: B1 chain with A94K
notes: as for B1
binding result (TRAIL [7]): no binding | RANKL fold change cf wt (RANKL [3]): 60 fold

B17: OVP I115Y (Fc fusion)
chain: B1 chain with A94Y
notes: as for B1
RANKL fold change cf wt (RANKL [1]): 1.1 fold | TRAIL fold change cf wt (TRAIL [2]): 3 fold

B18: OVP I115D (Fc fusion)
chain: B1 chain with A94D
notes: as for B1
RANKL fold change cf wt (RANKL [1]): 1.5 fold | TRAIL fold change cf wt (TRAIL [2]): > 125 fold

B19: OVP I115N (Fc fusion)
chain: B1 chain with A94N
notes: as for B1
TRAIL fold change cf wt (TRAIL [5]): 390 fold | RANKL fold change cf wt (RANKL [3]): 1.1 fold

B20: OVP I115S (Fc fusion)
chain: B1 chain with A94S
notes: as for B1
TRAIL fold change cf wt (TRAIL [2]): 3.1 fold | RANKL fold change cf wt (RANKL [3]): 1.4 fold

B21: OVP I115M, L40S (Fc fusion)
chain: B1 chain with L19S, A94M
notes: Tested as C-terminal Fc-linked dimer with FLAG tag, from HEK 293 EBNA cells; signal peptide 1-21 processed; also called R23; not shown: human Fc domain of vector pAPEX-3.Fc; C-terminal FLAG tag
RANKL fold change cf wt (RANKL [1]): 1.1 fold | TRAIL fold change cf wt (TRAIL [2]): > 250 fold

B22: OVP I115M, R122N (Fc fusion)
chain: B1 chain with A94M, R101N
notes: Tested as C-terminal Fc-linked dimer with FLAG tag, from HEK 293 EBNA cells; signal peptide 1-21 processed; also called I115M plus: R122N; not shown: human Fc domain of vector pAPEX-3.Fc; C-terminal FLAG tag
TRAIL fold change cf wt (TRAIL [2]): > 250 fold | RANKL fold change cf wt (RANKL [3]): 1.1 fold

B23: OVP I115T, K51R, S167G (Fc fusion)
chain: B1 chain with K30R, A94T, S146G
notes: as for B1
RANKL fold change cf wt (RANKL [1]): 1.5 fold | TRAIL fold change cf wt (TRAIL [2]): 15 fold

B24: OVP I115L (Fc fusion)
chain: B1 chain with A94L
notes: as for B1
RANKL fold change cf wt (RANKL [1]): 1.75 fold | TRAIL fold change cf wt (TRAIL [2]): 4.3 fold

B25: OVP I115V (Fc fusion)
chain: B1 chain with A94V
notes: as for B1
RANKL fold change cf wt (RANKL [1]): 1.5 fold | TRAIL fold change cf wt (TRAIL [2]): 4 fold

B26: OVP I115M, R122Q (Fc fusion)
chain: B1 chain with A94M, R101Q
notes: Tested as C-terminal Fc-linked dimer with FLAG tag, from HEK 293 EBNA cells; signal peptide 1-21 processed; also called I115M plus: R122Q; not shown: human Fc domain of vector pAPEX-3.Fc; C-terminal FLAG tag
RANKL fold change cf wt (RANKL [1]): 2.5 fold | TRAIL fold change cf wt (TRAIL [2]): 3 fold

B27: OVP I115R (Fc fusion)
chain: B1 chain with A94R
notes: as for B1
TRAIL fold change cf wt (TRAIL [5]): 50 fold | RANKL fold change cf wt (RANKL [3]): 2.3 fold

B28: OVP I115E (Fc fusion)
chain: B1 chain with A94E
notes: as for B1
TRAIL fold change cf wt (TRAIL [2]): > 250 fold | RANKL fold change cf wt (RANKL [3]): 2.25 fold

B29: OVP I115M, F128A (Fc fusion)
chain: B1 chain with A94M, F107A
notes: Tested as C-terminal Fc-linked dimer with FLAG tag, from HEK 293 EBNA cells; signal peptide 1-21 processed; also called I115M plus: F128A; not shown: human Fc domain of vector pAPEX-3.Fc; C-terminal FLAG tag
RANKL fold change cf wt (RANKL [1]): 1.2 fold | TRAIL fold change cf wt (TRAIL [2]): 2 fold

B30: OVP I115T, K51R (Fc fusion)
chain: B1 chain with K30R, A94T
notes: as for B1
TRAIL fold change cf wt (TRAIL [4]): 0.8 fold | RANKL fold change cf wt (RANKL [3]): 1.75 fold
